Reference: patent US7150969B2, “Alternatively spliced isoform of acetyl-CoA carboxylase 2 (ACC2)” (Rosetta Inpharmatics LLC, priority 2004, dated 2006)

Tested on: CC(=O)SCCNC(=O)CCNC(=O)[C@H](O)C(C)(C)COP(=O)(O)OP(=O)(O)OC[C@H]1O[C@@H](n2cnc3c(N)ncnc32)[C@H](O)[C@@H]1OP(=O)(O)O
Test: purified protein, by the assay type
Details: other: 37° C., 40 minutes, pH 7.5, 20 mM citrate

Substance	Km
ACC1 (Homo sapiens)	51 µM
ACC2 (Homo sapiens)	108 µM
